# Results taken from patent US20140154243A1 (Amgen, published 2014).
# B1: antibody 2.4.4 (antibody, human IgG2, kappa, V domains shown)
# VH: QVQLKESGPGLVKPSQTLSLTCTVSGGSISSGVYYWSWIRQHPGKGLEWIGYFYYSGNTYHNPSLKSRVTISVDTSKNQFSLKLSSVTAADTAVYYCARDRSGYDHPDAFDIWGQGTMVTVSS
# VL: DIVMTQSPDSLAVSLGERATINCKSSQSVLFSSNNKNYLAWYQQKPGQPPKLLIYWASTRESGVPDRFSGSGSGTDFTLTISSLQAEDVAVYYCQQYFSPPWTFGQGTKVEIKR
# notes: also called FITC-labeled antibody 2.4.4
# B2: antibody 2.12.1 (antibody, human IgG2, kappa, V domains shown)
# VH: QVQLQESGPGLVKPSETLSLTCTVSGGSISIYYWSWIRQPPGKGLEWIGYVYYSGSTNYNPSLKSRVTISVDTSKNQFSLKLNSVTAADTAVYYCARGGYDFWSGYFDYWGQGTLVTVSS
# VL: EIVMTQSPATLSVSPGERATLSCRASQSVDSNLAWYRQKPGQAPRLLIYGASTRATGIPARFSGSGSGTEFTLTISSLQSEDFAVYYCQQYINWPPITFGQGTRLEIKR
# Assays:
# [1] = biological target: T1, human hepatocyte growth factor (HGF) (human, UniProt P14210 32-728); test: neutralization ELISA (left table): inhibition of the binding of soluble Met (2 nM) to plate-coated HGF, detected with biotinylated anti-cMetR antibody and Eu-streptavidin; column head 'IC50 IP (nM)'
# T1 construct: Recombinant protein; The mature protein is a heterodimer of the alpha and beta subunits; also called human HGF; full length HGF
# Procedure: (§1) A neutralization ELISA assay was developed to assess whether the antibodies discussed in Example 6 could interrupt Met-HGF binding. Delphia 96-well plates (Cat#: AAAND-0001, Wallac Inc., Gaithersburg, Md.) were coated with HGF by adding 100 μl of HGF at 6.25 μg/ml per well. The plates were incubated at 37° C. for 1 hour or at 4° C. overnight. The plates were then blocked with 5% BSA (Cat#50-61-00, KPL, Gaithersburg, Md.) in PBS containing 0.1% Tween 20 for 1 hour at room temperature with shaking.
# (§2) Test samples were prepared by separately mixing soluble Met (2 nM, 0.256 μg/ml) with different concentrations of a particular antibody to HGF being tested. The concentrations tested were: 667 nM, 223 nM, 74.1 nM, 24.7 nM, 8.2 nM, 2.7 nM, 0.91 nM, 0.30 nM, 0.10 nM, and 0.034 nM. A volume of 100 μl of a test sample was added to each well of the plates. The plates were then incubated at 4° C. overnight and then washed 4 times with PBS containing 0.1% Tween 20. Next, 100 μl per well of Biotinylated anti-cMetR antibody (Cat#: BAF358, R&D Systems Inc., Minneapolis, Minn.) at 2 μg/ml, was added. […] The plates were then incubated for 2 hours with shaking, and were washed 4 times with PBS containing 0.1% Tween 20. Eu-streptavidin (1:1000 dilution in Assay buffer) (Cat#1244-360, Wallac Inc., Gaithersburg, Md.) was added and the plates were shaken at room temperature for 1 hour. The plates were then washed 4 times with PBS containing 0.1% Tween 20. Next, 100 μl of enhancement buffer (Wallac Inc., Cat#: 1244-105, Gaithersburg, Md.) was added. After at least for 5 minutes, the plates were read using Europium method on Victor 2 (1420 Multilabel Counter, Wallac Inc., Gaithersburg, Md.).
# (§3) Percent inhibition of Met binding to HGF (i.e. neutralization) was calculated and IC₅₀ values were determined using the 4 parameter fit equation Excelfit, Version 2.0.6, (Microsoft Inc, Seattle, Wash.). In the presence of the antibodies to HGF discussed in Examples 6, Met binding to HGF was neutralized.
# mouse HGF = biological target: T2, mouse HGF (mouse, UniProt Q08048 33-728); test: FACS bead assay: antibody incubated with the avidin fusion of mouse HGF, captured on biotin-coated beads; FITC anti-avidin (x) against PE goat anti-human F(ab')2 (y)
# T2 construct: also called recombinant mouse HGF; mHGF
# Procedure: After incubation, the fusion proteins in each sample were separately captured using biotin-coated beads (Spherotech Inc., Libertyville, Ill., Cat # TP-60-5). The resulting bead-protein complexes were labeled by adding FITC labeled anti-avidin antibody (Vector Lab, Burlingame, Calif., Cat. # SP-2040). The presence of antibodies to HGF was determined by adding phycoerythrin (PE) labeled goat anti-human F(ab′)2 antibody (Southern Biotech Associates, Inc, Birmingham, Ala., Cat #2043-09).
# Those samples were then subjected to Fluorescence Activated Cell Sorter (FACS) analysis. Bead complexes labeled by FITC (which indicated the presence of avidin) and/or PE (which indicated the presence of antibody to HGF) were detected on a Becton Dickinson Bioscience FACScan (BD, Franklin Lakes, N.J.).
# [2] = biological target: T1, human hepatocyte growth factor (HGF); test: neutralization ELISA (right table): inhibition of the binding of soluble Met (2 nM) to plate-coated HGF, detected with biotinylated anti-cMetR antibody and Eu-streptavidin; column head 'IC50 IP (nM)'
# Procedure: as §1, §2, §3
# T1 sequence (P14210 32-728 limits assumed): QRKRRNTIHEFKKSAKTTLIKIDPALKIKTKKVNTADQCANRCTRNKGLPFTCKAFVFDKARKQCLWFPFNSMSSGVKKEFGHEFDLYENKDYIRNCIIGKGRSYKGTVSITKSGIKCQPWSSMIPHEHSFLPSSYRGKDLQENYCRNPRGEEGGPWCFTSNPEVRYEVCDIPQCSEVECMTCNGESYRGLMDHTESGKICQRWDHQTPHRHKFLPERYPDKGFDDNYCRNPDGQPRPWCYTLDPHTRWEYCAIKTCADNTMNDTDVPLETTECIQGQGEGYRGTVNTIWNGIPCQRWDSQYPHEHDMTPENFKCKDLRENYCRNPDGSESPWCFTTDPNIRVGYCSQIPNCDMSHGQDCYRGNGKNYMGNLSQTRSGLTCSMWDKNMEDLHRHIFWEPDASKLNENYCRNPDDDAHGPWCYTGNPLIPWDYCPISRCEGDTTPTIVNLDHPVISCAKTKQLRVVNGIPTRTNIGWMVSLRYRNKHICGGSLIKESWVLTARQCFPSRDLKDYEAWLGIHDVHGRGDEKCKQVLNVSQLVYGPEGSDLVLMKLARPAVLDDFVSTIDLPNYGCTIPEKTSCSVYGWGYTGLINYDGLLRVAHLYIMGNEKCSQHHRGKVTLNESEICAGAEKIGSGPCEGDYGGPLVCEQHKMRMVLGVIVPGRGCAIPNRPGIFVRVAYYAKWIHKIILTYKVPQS
# T2 sequence (Q08048 33-728 limits assumed): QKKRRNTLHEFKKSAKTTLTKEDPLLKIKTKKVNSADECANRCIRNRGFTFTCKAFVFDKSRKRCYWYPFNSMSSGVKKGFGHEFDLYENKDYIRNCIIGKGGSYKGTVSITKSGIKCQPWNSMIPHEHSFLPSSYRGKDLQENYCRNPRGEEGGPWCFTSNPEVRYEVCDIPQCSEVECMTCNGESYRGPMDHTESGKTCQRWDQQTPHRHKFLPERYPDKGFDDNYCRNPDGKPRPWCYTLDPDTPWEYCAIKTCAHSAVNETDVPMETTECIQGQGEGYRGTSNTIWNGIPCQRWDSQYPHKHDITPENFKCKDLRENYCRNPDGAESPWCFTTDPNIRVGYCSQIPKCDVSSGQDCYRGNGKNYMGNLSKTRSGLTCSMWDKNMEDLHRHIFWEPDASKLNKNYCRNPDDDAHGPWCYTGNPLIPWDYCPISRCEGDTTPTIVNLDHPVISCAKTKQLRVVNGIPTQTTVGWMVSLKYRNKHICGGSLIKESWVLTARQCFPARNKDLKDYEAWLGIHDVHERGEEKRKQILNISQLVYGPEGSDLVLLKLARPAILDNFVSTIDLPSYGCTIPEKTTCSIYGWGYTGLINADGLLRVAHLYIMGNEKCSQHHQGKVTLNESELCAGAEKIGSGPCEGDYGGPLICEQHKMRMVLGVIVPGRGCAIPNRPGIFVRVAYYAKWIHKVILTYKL
Binder,IC50 [1] [nM],binding result (mouse HGF),IC50 [2] [nM]
B1,5.1,no binding,–
B2,2.1,no binding,0.52
